Where two headings read alike, the source gives them in different places.
Legend:
[1] = target: T1, recombinant human Fc gamma RIIIa (CD16a) 158V (human, UniProt P08637 17-208)
[2] = target: T2, recombinant human Fc gamma RIIIb (CD16b) (human, UniProt O75015 17-200)
[3] = target: T3, recombinant human Fc gamma RIIa (CD32a) 131H (human, UniProt P12318 36-218)
T3 sequence (looked up): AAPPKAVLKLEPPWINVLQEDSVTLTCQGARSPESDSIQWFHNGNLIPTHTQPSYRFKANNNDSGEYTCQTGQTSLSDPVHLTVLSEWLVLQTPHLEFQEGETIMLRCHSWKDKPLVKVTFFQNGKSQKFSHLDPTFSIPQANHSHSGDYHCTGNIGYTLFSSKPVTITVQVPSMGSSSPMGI

[4] = target: T4, recombinant human Fc gamma RIIa (CD32a) 131R (human, UniProt P12318 36-218)
T4 sequence (looked up): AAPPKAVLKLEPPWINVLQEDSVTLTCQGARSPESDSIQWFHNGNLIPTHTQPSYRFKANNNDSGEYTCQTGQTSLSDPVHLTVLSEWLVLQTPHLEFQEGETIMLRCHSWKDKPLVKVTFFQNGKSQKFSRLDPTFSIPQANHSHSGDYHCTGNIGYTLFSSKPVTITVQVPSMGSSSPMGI

[5] = target: T5, recombinant human Fc gamma RIIb/c (CD32b/c) (human, UniProt P31994 46-217)
T5 sequence (looked up): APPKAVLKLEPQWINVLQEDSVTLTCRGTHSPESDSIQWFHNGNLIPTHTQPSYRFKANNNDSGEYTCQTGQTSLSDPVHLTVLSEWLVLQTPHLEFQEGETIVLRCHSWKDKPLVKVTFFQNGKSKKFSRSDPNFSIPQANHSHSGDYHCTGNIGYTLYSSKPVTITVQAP

[6] = target: T6, recombinant human Fc gamma RI (CD64) (human, UniProt P12314 16-288)
T6 sequence (P12314 16-288 limits assumed): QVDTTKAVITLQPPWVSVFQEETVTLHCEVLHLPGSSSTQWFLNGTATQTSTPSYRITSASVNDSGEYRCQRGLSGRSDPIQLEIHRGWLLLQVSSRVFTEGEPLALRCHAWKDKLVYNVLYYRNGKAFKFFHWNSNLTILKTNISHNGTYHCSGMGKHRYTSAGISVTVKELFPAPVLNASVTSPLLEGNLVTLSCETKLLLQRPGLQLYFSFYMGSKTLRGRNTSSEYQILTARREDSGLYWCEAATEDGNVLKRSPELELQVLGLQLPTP

CD20 Lipoparticles = target: T7, CD20 Lipoparticles (Homo sapiens (Human), UniProt P11836 1-297)
T7 sequence: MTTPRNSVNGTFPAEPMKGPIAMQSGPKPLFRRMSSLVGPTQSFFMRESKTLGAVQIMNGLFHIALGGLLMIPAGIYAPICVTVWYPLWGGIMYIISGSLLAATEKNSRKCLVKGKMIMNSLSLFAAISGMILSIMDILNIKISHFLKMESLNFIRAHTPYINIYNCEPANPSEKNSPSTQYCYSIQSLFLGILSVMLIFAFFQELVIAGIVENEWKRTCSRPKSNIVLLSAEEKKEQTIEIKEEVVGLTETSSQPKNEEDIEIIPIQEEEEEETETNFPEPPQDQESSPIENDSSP

[7] = target: T8, recombinant human full-length CD20 (human, UniProt P11836 1-297)
T8 sequence (looked up): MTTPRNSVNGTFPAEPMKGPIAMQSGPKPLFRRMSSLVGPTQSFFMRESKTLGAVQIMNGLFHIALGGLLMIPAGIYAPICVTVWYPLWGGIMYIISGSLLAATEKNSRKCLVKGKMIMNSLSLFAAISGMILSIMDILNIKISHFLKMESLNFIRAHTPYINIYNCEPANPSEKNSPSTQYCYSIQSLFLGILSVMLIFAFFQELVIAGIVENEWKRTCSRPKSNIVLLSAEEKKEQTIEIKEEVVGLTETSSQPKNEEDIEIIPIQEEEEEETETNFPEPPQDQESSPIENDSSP

[8] = target: T9, recombinant human Fc gamma RIIIa (CD16a) 158F (human, UniProt P08637 17-208)
T9 sequence (P08637 17-208 limits assumed): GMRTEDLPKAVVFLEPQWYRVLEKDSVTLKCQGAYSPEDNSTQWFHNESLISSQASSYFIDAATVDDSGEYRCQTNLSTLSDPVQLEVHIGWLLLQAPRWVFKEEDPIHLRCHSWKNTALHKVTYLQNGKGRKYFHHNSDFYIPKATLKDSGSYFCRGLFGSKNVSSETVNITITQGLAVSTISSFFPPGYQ

[9] = target: T1, recombinant human Fc gamma RIIIa …; remark: listed apart in the source
[10] = target: T2, recombinant human Fc gamma RIIIb (CD16b); remark: listed apart in the source
[11] = target: T3, recombinant human Fc gamma RIIa (CD32a) …; remark: listed apart in the source
[12] = target: T4, recombinant human Fc gamma RIIa (CD32a) …; remark: listed apart in the source
[13] = target: T5, recombinant human Fc gamma RIIb/c …; remark: listed apart in the source
[14] = target: T6, recombinant human Fc gamma RI (CD64); remark: listed apart in the source
[15] = target: T10, cynomolgus monkey Fc gamma receptor CD16 (cynomolgus monkey, UniProt Q8SPW2 17-208)
T10 sequence (Q8SPW2 17-208 limits assumed): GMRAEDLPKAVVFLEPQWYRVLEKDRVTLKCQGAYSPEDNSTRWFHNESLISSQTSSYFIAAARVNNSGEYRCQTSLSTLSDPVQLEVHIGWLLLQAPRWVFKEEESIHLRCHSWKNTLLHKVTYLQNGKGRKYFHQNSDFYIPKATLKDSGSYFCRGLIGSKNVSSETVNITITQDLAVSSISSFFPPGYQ

[16] = target: T10, cynomolgus monkey Fc gamma receptor CD16; remark: listed apart in the source
[17] = target: T11, recombinant cynomolgus monkey CD20 (cynomolgus monkey, UniProt M4ZHZ6 1-297)
T11 sequence: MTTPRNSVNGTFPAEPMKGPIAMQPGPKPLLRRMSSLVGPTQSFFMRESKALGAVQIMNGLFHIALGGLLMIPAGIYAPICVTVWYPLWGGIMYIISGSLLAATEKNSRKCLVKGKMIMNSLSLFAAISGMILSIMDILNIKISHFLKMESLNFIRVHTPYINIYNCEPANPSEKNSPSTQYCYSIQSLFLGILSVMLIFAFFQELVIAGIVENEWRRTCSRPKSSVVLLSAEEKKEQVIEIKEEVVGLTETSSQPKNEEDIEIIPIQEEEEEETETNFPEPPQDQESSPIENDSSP

[18] = target: T12, cynomolgus monkey CD20 on cells (cynomolgus monkey, UniProt M4ZHZ6 1-297)
T12 sequence: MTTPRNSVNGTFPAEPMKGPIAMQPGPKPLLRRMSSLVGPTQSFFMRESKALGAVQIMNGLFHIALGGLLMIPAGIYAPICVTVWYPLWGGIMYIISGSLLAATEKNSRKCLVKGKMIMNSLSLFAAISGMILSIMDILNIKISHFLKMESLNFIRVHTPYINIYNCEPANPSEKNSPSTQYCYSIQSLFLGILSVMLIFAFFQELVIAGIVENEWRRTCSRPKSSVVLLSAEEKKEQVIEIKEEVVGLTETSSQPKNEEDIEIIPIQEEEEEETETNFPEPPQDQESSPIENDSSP

[19] = target: T9, recombinant human Fc gamma RIIIa …; remark: listed apart in the source
[20] = target: T1, recombinant human Fc gamma RIIIa …; remark: listed apart in the source
[21] = target: T2, recombinant human Fc gamma RIIIb (CD16b); remark: listed apart in the source
[22] = target: T4, recombinant human Fc gamma RIIa (CD32a) …; remark: listed apart in the source
[23] = target: T5, recombinant human Fc gamma RIIb/c …; remark: listed apart in the source
[24] = target: T6, recombinant human Fc gamma RI (CD64); remark: listed apart in the source

T1 sequence (P08637 17-208 F176V limits assumed): as the sequence (P08637 17-208 limits assumed) above, with F160V counted along it
T2 sequence (O75015 17-200 limits assumed): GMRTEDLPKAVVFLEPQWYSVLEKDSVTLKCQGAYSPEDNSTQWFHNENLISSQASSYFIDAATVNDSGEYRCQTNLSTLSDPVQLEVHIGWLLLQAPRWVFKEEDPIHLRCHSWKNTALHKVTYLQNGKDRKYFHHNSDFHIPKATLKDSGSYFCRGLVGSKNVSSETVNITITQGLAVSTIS

B1: Rituximab (antibody)
VH: not shown
VL: QIVLSQSPAILSASPGEKVTMTCRASSSVSYIHWFQQKPGSSPKPWIYATSNLASGVPVRFSGSGSGTSYSLTISRVEAEDAATYYCQQWTSNPPTFGGGTKLEIKRTVAAPSVFIFPPSDEQLKSGTASVVCLLNNFYPREAKVQWKVDNALQSGNSQESVTEQDSKDSTYSLSSTLTLSKADYEKHKVYACEVTHQGLSSPVTKSFNRGEC
B1 showed a Kd [1] of 715 nM, a Kd [2] of 1530 nM and a Kd [3] of 892 nM. For the same binder, the Kd [4] was 1250 nM, the Kd [5] was 1520 nM and the Kd [6] was 52.8 nM. For the same binder, the Kd (CD20 Lipoparticles) was < 0.001 nM, the Kd [7] was 0.46 nM and the Kd [8] was 1530 nM. It also gave a Kd [9] of 595 nM, a Kd [10] of 4090 nM and a Kd [11] of 1740 nM. The Kd [12] was 2330 nM, the Kd [13] was 6680 nM and the Kd [14] was 11.3 nM. For the same binder, the Kd [15] was 425 nM, the Kd [16] was 130 nM and the Kd [17] was 1.1 nM. For the same binder, the EC50 [18] was 0.61 nM, the Kd [19] was 1520 nM and the Kd [20] was 309 nM. The Kd [21] was 4320 nM, the Kd [22] was 635 nM and the Kd [23] was 8880 nM. For the same binder, the Kd [24] was 0.0547 nM.

Source: US20250084169A1 (published 2025)
